Measurements as given in publication PMC8924993.

Molecular target: integrin αIIbβ3 (human (endogenous in HEL)) (UniProt P08514)
Experiment: proximity ligation

Chain of talin (Q9Y490 whole entry): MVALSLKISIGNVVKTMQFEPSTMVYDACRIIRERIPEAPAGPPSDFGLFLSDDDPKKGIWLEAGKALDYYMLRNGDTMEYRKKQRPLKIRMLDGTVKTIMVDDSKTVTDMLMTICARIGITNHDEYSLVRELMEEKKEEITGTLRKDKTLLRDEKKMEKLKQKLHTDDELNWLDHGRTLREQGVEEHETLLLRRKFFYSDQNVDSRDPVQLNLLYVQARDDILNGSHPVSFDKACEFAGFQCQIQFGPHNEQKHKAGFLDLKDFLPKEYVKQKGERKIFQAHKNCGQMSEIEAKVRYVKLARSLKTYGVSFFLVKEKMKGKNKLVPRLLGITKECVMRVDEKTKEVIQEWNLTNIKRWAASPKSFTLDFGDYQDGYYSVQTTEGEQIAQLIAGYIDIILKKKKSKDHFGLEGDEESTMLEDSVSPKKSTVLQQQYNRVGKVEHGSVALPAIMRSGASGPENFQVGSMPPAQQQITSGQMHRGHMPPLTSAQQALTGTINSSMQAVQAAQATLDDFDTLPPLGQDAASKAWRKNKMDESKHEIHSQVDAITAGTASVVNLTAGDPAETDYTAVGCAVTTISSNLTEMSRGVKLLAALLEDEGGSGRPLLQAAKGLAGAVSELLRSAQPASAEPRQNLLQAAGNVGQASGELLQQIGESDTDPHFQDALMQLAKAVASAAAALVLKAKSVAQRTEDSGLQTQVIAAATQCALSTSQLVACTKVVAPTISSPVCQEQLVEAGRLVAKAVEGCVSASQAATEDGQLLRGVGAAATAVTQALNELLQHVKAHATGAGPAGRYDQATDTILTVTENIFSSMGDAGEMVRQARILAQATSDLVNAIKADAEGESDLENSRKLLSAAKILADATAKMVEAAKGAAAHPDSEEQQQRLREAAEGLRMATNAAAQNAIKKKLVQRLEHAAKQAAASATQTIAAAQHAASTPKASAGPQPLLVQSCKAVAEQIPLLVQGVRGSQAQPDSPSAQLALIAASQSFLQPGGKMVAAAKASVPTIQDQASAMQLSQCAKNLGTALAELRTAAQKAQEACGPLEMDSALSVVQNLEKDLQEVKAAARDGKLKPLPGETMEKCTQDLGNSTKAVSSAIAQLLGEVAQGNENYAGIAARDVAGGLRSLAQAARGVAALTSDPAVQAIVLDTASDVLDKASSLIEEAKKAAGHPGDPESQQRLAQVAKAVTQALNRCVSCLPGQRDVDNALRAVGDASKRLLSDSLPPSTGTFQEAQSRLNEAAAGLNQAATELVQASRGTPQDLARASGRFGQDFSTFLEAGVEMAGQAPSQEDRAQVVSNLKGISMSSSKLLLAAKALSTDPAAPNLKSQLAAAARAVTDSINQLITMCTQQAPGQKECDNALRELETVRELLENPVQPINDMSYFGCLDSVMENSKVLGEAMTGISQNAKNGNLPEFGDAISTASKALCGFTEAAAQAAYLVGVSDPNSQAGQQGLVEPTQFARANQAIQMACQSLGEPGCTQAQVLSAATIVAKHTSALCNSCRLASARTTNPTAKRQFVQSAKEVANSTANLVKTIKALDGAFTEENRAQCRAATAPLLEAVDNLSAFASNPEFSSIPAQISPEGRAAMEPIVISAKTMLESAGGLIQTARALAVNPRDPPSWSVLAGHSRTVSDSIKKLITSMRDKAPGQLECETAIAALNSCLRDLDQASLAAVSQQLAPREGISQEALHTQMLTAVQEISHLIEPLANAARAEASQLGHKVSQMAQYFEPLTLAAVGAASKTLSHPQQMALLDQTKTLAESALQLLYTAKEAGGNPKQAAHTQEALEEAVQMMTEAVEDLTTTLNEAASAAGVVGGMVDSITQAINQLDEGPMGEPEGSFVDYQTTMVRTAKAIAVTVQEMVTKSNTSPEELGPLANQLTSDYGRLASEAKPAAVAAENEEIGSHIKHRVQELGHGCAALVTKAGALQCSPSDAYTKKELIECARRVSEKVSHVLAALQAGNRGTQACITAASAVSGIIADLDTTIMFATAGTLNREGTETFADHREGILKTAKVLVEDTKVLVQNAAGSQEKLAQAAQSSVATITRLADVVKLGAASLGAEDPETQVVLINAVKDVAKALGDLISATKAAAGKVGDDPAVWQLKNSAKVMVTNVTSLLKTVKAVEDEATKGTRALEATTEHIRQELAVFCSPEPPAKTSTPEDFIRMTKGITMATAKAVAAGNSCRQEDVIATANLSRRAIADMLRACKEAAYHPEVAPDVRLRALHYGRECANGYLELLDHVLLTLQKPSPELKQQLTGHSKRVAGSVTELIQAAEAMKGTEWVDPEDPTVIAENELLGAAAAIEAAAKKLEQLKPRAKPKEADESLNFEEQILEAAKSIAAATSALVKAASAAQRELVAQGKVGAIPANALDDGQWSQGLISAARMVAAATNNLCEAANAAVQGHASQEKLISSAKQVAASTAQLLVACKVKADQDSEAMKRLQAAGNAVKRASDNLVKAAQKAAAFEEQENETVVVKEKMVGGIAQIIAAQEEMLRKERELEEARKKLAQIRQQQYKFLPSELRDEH

| PLA dots/cell (with PMA; FLNa-Del1 cells) [dots/cell] | PLA dots/cell (without PMA; FLNa-Del1 cells) [dots/cell] | PLA dots/cell (no PMA; control, FLNa WT and FLNa-Del1 cells) [dots/cell] | PLA dots/cell (with 10 µM ROCK inhibitor Y-27632; FLNa WT cells, Figure 5H) [dots/cell] | PLA dots/cell (with PMA and 10 µM EHop-016; FLNa-Del1 cells) [dots/cell] | PLA dots/cell (with PMA and 10 µM Y-27632; FLNa WT cells) [dots/cell] | PLA dots/cell (with PMA and Y-27632; FLNa-Del1 cells) [dots/cell] | PLA dots/cell (with PMA, without EHop-016; FLNa-Del1 cells) [dots/cell] | PLA dots/cell (with PMA, without Y-27632; FLNa WT cells) [dots/cell] | PLA dots/cell (with PMA, without Y-27632; FLNa-Del1 cells) [dots/cell] | PLA dots/cell (with PMA; FLNa WT cells) [dots/cell] | PLA dots/cell (with PMA; FLNa-Del2 cells) [dots/cell] | PLA dots/cell (with PMA; FLNa-WT cells) [dots/cell] | PLA dots/cell (without ROCK inhibitor; FLNa WT cells, Figure 5H) [dots/cells] | Substance |
| --- | --- | --- | --- | --- | --- | --- | --- | --- | --- | --- | --- | --- | --- | --- |
| 7.2 | 17.6 | – | – | – | – | – | – | – | – | – | – | – | – | FLNa-Del1, filamin A mutant lacking the N-terminal actin-binding domain (CH1-CH2) (domain or fragment) |
| 15 | 4.6 | 5 | 17.7 | 4.4 | 10.8 | 13.2 | 20.4 | 4 | 14.9 | 8.2 | 21.2 | 7.1 | 9.1 | talin (from UniProt Q9Y490 1-2541) (natural protein) |
